Measurements: patent US20250262210A1 (TRUSTEES OF COLUMBIA UNIVERSITY IN THE CITY OF NEW YORK, published 2025)

Experiments:
Test in all cases: IP/MS, LZTR1 wild type-FLAG, U87
[1] = biological target: T1, STK11IP (human, UniProt Q8N1F8 1-1088)
T1 sequence (looked up): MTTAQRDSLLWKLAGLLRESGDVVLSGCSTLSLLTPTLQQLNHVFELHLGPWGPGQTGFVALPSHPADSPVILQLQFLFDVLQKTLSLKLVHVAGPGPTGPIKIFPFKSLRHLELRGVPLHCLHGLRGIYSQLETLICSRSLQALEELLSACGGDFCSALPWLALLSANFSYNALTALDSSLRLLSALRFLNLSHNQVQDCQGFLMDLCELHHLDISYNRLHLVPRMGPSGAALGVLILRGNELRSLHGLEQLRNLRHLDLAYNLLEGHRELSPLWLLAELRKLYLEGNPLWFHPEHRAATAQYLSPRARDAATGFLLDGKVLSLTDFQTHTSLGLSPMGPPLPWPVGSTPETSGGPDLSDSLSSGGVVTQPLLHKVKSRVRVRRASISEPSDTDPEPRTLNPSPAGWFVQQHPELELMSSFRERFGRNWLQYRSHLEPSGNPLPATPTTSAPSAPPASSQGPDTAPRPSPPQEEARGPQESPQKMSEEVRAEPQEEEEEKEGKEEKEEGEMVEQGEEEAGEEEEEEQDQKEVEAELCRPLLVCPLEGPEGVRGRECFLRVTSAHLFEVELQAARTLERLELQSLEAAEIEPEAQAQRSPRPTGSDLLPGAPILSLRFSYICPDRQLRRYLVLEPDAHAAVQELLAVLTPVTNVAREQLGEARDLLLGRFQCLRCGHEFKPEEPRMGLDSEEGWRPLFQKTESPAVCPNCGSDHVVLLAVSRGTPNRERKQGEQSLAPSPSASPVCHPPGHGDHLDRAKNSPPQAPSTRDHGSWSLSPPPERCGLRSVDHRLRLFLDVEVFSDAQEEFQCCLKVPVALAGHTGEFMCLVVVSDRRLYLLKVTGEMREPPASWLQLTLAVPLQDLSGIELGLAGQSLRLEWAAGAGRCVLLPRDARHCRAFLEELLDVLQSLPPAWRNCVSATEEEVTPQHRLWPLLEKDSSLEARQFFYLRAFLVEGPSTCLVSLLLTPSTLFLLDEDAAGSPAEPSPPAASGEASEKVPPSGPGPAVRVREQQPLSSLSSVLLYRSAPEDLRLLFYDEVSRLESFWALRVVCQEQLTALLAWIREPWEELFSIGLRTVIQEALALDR
Summary of the method: (§1)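 Gel slices were reduced with 5 mM DTT, alkylated with 11 mM IAA and digested overnight at 37° C. with trypsin. Peptides were analysed on an Orbitrap Fusion Tribrid by LC-MS/MS.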

[2] = biological target: T2, CC2D1A (human, UniProt Q6P1N0 1-951, limits assumed)
T2 sequence (looked up): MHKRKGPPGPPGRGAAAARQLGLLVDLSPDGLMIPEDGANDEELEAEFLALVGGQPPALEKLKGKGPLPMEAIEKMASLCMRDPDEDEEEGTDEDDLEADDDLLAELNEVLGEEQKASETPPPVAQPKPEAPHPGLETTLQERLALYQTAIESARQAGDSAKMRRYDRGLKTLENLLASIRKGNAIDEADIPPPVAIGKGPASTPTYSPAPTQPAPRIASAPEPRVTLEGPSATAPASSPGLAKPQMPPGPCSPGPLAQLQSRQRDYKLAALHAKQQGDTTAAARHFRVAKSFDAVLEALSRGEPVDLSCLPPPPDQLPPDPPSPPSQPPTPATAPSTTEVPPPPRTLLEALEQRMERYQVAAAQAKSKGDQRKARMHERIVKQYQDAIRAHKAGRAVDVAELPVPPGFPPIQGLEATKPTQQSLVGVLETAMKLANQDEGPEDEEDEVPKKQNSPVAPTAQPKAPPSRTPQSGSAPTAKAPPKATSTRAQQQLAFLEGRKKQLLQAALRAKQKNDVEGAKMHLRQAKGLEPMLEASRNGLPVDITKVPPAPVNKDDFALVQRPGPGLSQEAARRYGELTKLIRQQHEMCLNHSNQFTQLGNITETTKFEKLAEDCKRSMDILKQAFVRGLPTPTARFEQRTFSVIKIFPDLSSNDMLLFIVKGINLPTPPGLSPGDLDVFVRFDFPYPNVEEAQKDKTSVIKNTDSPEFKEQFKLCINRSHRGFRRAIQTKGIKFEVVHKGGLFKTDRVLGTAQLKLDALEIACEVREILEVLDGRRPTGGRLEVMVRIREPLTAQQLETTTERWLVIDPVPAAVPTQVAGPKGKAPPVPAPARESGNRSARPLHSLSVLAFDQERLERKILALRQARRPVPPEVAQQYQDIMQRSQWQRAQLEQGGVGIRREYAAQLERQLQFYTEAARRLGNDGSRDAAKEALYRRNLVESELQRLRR
Summary of the method: as §1

[3] = biological target: DIP2B (human, UniProt Q9P265 1-1576)
DIP2B, sequence (Q9P265 whole entry): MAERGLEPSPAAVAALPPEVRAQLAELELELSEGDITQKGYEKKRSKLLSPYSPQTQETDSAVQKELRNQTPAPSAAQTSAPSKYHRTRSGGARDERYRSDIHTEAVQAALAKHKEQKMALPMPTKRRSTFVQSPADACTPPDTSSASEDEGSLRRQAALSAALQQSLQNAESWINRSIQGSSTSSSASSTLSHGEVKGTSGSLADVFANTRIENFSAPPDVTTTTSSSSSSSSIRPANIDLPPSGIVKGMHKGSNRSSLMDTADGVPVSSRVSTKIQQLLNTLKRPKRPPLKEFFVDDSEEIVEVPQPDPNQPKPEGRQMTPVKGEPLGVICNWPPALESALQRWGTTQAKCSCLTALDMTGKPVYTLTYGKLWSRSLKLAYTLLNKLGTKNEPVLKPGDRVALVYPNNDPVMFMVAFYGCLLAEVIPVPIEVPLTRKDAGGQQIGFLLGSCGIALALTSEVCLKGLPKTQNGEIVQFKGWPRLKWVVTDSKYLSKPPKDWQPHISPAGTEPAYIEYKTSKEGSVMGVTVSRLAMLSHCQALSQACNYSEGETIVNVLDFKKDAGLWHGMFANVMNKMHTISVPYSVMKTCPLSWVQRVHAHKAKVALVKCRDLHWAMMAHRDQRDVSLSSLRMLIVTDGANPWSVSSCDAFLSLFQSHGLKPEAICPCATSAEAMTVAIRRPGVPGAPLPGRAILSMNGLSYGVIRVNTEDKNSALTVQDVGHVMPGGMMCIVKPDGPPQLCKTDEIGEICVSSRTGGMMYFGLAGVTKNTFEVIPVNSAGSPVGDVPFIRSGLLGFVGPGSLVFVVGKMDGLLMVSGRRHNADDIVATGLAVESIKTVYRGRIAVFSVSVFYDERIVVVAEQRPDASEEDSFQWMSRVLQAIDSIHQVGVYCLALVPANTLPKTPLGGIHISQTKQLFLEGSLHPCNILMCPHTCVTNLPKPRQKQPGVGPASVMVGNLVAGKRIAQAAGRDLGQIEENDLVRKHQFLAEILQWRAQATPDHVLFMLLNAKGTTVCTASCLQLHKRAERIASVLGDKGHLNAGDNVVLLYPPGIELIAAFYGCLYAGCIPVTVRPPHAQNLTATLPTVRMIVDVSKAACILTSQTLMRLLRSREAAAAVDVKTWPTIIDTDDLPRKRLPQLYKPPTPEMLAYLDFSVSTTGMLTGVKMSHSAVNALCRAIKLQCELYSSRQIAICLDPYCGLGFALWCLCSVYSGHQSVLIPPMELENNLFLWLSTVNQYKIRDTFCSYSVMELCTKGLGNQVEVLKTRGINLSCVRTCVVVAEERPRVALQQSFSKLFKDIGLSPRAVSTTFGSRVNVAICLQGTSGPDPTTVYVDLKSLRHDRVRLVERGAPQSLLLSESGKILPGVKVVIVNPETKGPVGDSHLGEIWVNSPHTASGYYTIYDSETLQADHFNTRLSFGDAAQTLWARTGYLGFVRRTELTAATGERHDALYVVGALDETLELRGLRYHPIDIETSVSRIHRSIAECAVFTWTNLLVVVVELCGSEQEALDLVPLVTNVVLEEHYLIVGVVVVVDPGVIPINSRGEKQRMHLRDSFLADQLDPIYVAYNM
Summary of the method: as §1

Measured: binding result

B1: LZTR1-FLAG (other, human, UniProt Q8N653 1-840, looked up)
chain: MAGPGSTGGQIGAAALAGGARSKVAPSVDFDHSCSDSVEYLTLNFGPFETVHRWRRLPPCDEFVGARRSKHTVVAYKDAIYVFGGDNGKTMLNDLLRFDVKDCSWCRAFTTGTPPAPRYHHSAVVYGSSMFVFGGYTGDIYSNSNLKNKNDLFEYKFATGQWTEWKIEGRLPVARSAHGATVYSDKLWIFAGYDGNARLNDMWTIGLQDRELTCWEEVAQSGEIPPSCCNFPVAVCRDKMFVFSGQSGAKITNNLFQFEFKDKTWTRIPTEHLLRGSPPPPQRRYGHTMVAFDRHLYVFGGAADNTLPNELHCYDVDFQTWEVVQPSSDSEVGGAEVPERACASEEVPTLTYEERVGFKKSRDVFGLDFGTTSAKQPTQPASELPSGRLFHAAAVISDAMYIFGGTVDNNIRSGEMYRFQFSCYPKCTLHEDYGRLWESRQFCDVEFVLGEKEECVQGHVAIVTARSRWLRRKITQARERLAQKLEQEAAPVPREAPGVAAGGARPPLLHVAIREAEARPFEVLMQFLYTDKIKYPRKGHVEDVLLIMDVYKLALSFQLCRLEQLCRQYIEASVDLQNVLVVCESAARLQLSQLKEHCLNFVVKESHFNQVIMMKEFERLSSPLIVEIVRRKQQPPPRTPLDQPVDIGTSLIQDMKAYLEGAGAEFCDITLLLDGHPRPAHKAILAARSSYFEAMFRSFMPEDGQVNISIGEMVPSRQAFESMLRYIYYGEVNMPPEDSLYLFAAPYYYGFYNNRLQAYCKQNLEMNVTVQNVLQILEAADKTQALDMKRHCLHIIVHQFTKVSKLPTLRSLSQQLLLDIIDSLASHISDKQCAELGADI
notes: Expressed in HEK 293T, HeLa or U87 cells; used as cell lysate; also called LZTR1 wild type-FLAG; LZTR1 WT; not shown: FLAG tag at the C-terminus
binds: [1] | [2] | [3]
